Assay results reported in patent US20230322910A1 (published 2023).

T1: PfRipr5 (fragment of Ripr, positions 720-934 of SEQ ID NO: 17), made by wheat germ cell-free synthesis with … (UniProt O97302 720-934)
T1 chain: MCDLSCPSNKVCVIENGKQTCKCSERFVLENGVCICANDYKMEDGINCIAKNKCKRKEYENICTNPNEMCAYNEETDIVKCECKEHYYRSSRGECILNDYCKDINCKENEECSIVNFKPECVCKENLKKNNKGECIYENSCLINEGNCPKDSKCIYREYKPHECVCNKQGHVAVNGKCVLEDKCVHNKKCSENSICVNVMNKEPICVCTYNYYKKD


Experiments:
[1] = molecular target: 4B7; assay: SPR; U-value 95, negligible response
[2] = molecular target: T1, PfRipr5 (fragment of Ripr, positions …); assay: SPR

Row | Binder | Kd [1] | Kd [2]
1 | - (other) MCDLSCPSNKVCVIENGKQTCKCSERFVLENGVCICANDYKMEDGINCIAKNKCKRKEYENICTNPNEMCAYNEETDIVKCECKEHYYRSSRGECILNDYCKDINCKENEECSIVNFKPECVCKENLKKNNKGECIYENSCLINEGNCPKDSKCIYREYKPHECVCNKQGHVAVNGKCVLEDKCVHNKKCSENSICVNVMNKEPICVCTYNYYKKD | 0.0693 nM | 
2 | mouse monoclonal antibody 29B11 (antibody, V domains shown) VH: EVQLQQSGPELMKPGASVKISCKTSGYTFTEYTMHWVKQSHGKSLEWIGGIDPNNGITIYDQKFKGKATLTVDKSSSTAYMELRSLTSEDSAVYYCTRYYYGHYFDYWGQGTTLTVSS VL: DVLMTQTPLSLPVSLGDQASISCRSSQSIVHNNGHTYLEWYLQKPGQSPKLLIYKVSNRFSGVPDRFSGSGSGTDFTLKISRVEAEDLGIYYCFQDSHVPWTFGGGTKLEIKR |  | 2.19 nM
3 | mouse monoclonal antibody 26H4 (antibody, V domains shown) VH: EVQLQQSGPELVKPGASVKISCKTSGYTFTEYTMHWVKQSHGKSLEWIGGIDPNNGVTIYNQNFKGKATLTVDKSSSTAYMELRSLTSEDSAVYHCARYYYGHYFDYWGQGTTLTVSS VL: DVLMTQTPLSLPVSLGDQASISCRSSQSIVHSNGNTYLEWYLQKPGQSPKLLIYKVSNRFSGVPDRFSGSGSGTDFTLKISRVEAEDLGVYYCFQNSHVTWTFGGGTKLEIKR |  | 0.69 nM
